Test results: a protein production outcome set (Wang et al. 2014)

Test: label from the status in PepcDB records
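Further: failed if final PepcDB status was selected cloned or expressed and not failed if soluble or beyond.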

Sequence | protein production
MTVGASQQTSTIALHNDTGMLMSNLNIFKQPNAFYLIFSIEFWERFGFYGMQAILTVYMVKIMGMDESASFVLFGAFSALVYGFVAIGGWIGDKVIGTKRAITLGAIVMMVGYVLLGLSTADHPLVGPTLIYIAMGFITVGNGLFKANPSSLLAKIYPENDPRLDGAFTMYYMAINLGSFFSMIITPLVAIKMGYGMAFGVSAVGLAITVVNFLFCLRMLKGTGSPADLMPVNKMYLVLVAVGSIIASLVCSYLLQNLTLAHGILVVAGLFILGCYFKEAFSMSGIERAKMLVAFILMLQGVVFFVLYFQMPTSLNFFAINNVEHHIFGFDVAPEQFQALNPFWIMIASPILAATYGKLGDKLAMPFKFAFGMALCALSFLVLSWGTLFANEQGIISSNWLIASYAFQSIGELLVSGLGLAMVAQLVPQRMMGFAMGMWFLTSASAAVIAGWVASLTSTPANVSGATESLHIYGEVFAQIGYVTAGIAIVTFMIAPKLTRICRGESEPLELVTQ | failed
MNKQSAAVLMVMGSALSLQFGAAIGTQLFPLNGPWAVTSLRLFIAGLIMCLVIRPRLRSWTKKQWIAVLLLGLSLGGMNSLFYASIELIPLGTAVTIEFLGPLIFSAVLARTLKNGLCVALAFLGMALLGIDSLSGETLDPLGVIFAAVAGIFWVCYILASKKIGQLIPGTSGLAVALIIGAVAVFPLGATHMGPIFQTPTLLILALGTALLGSLIPYSLELSALRRLPAPIFSILLSLEPAFAAAVGWILLDQTPTALKWAAIILVIAASIGVTWEPKKMLVDAPLHSKCNAKRRVHTPS | failed
MMVISEKVRKALNDQLNREIYSSYLYLSMATYFDAEGFKGFAHWMKKQAQEELTHAMKFYEYIYERGGRVELEAIEKPPSNWNGIKDAFEAALKHEEFVTQSIYNILELASEEKDHATVSFLKWFVDEQVEEEDQVREILDLLEKANGQMSVIFQLDRYLGQRE | not failed
MSDHPGSNAANPPPVPGAPALRTRRFNVSLVWLVPIVAALVGLSMVVHNSLSAGPEISISFQTAEGLEANKTQVKYKNVVIGKVTSIALSDDRKKVVAKVELDQSAEPFTADDSLFWVVRPRIGANGISGVDTLLSGAFIGADAGKSEKRKDSFKGLETPPPITYGQKGKRFTLHTDDLGSLDIGSPVYYRRIEVGQVVSYQLANSGKGVDVKIFVNSPNDKYVTTDTRFWNASGVDVTLGANGLKVNTESVSSILAGGIAFVEPKYSPNAKPADENAEYTLFGDQDTALAPPDGAPYYIRMRFDQALRGLSVNAPVEFLGVNIGKVVSMDLDYDEQRKYFPTLVGAVIYPERLGKAHEKLVKQTGGEDDVRSAKLIGAFVKNGLRAQPRSGNLLTGQLYISLDFVTNAKPVAYDATARPLEIPTVPGSMDKLQEQLQAVVDKISKLPIDSIAANLNGSLAEMQKTLKQVNGEVLPQMRDTLEQSKKTLASANESFSEDSPQRQKLGQAMEEVQRTARSVRVLSDFLGRHPEALIRGRLKDNQPDAYQSPSSSVRESVPEAQP | failed
ILFSVVIGSFTPAHPIASETNPKVENAKDAPEIEPFSEQAVEELHRQKKPLFIYFSADWCLTCKVNEKMAIDRDSTRQAFRQKGIVTLHGDWTNGDPEITHFLSKMHRSGIPLYLYYPADGEIQI | failed
QTQALFMNTRRAVFKERALRQALGEMFDFEWTNRALFSNSYLRSRSYYPNSEFAASGVPEGQEWLYLSPYRKQLPAQLFKQPFSLPTTEGRGIPRETLRHALGLLADAGWKLSGDRLLNKKGEPLRFEILLVNPSLERILQPYRENLASIGIDARLRTVDRAQYKQRLDQFDYDMILMTLPQTLSPGLEQWQYFHSSQVKVKGSKNYAGIANPVVDAMLNRLLGAHSRDEQVAAARALDRTLLWQYYSIPNWYLN | failed
MELTELLDIGRQERSQQKPVQIRCCTAAGCLSANSQAVQQQLEQAVKAEGLEGEVQVSGVGCMRLCCQGPLVEVEGSGEEKTKQRLYEKVTPEDASAIIGAL | failed
MILVSLVVVLFLVLLNGVFSMSELAVVSARKARLQGFAERGDRGAKLALEMSEHPTRFLSAVQVGITLIGIFAGAYGQATIAAALDAWLEASVPALAKYSEAIATTLVVIGLTYVSVILGELVPKRLALIFPDAIARRMAPFLAVVATVLRPFVTLLTVSTAAVLRLMGVRDERNTSVTSEEVEAVLAEGADAGLIEPEERSMIQEVLRLGDRPVRVAMTPRRDLFWVSLADDTETVLKEIRASAHSRIVVATEGDLDGDVGVLLKKDLLDACLSGEPLDLKAHVQQPLAIPETMSLLKALQLFKSTSLHMALVVDEFGSLQGAITPLDLLEMIAGDFPEDHDDDEKRIIRREDGGWLIDARLDIQELNDHLGENFEADGGYHTVAGLILDRLGRLPTEGEHVEIGGFDLEIVDMDGSRIDKVILKPSKRRKEGQEG | failed
MNKRNTQQRRHSIISILNEQGEVSVDELSLRFETSEVTIRKDLAELEKTGLLLRRYGGAVAIPDEVTQQFSAKIAPNKLSIAKAAAQLIKDHNRIIIDSGTTTSGLIAELNQKRGLVVMTNALHLANAIHELENEPTLLMTGGTWDPHSESFQGQVAEQVLRSYNFDQLFIGADGIDLARGTTTFNELTGLSKVMAEVSREVIVMVDSDKIGKRIPNLELPWSKISVLVTDARIEESALKQITEQGVKVILAPYSP | failed
MNNIILMPILIPFLGAITLMLLPKRVIVQRVFALIFSGILVVATIGLVFYIRENGITTVNIGNWAAPFGITMVGDMLAVLLTATTSIVLFCVILYSFYTIGKPREKFLYYPAILFMIVGVNGSFLTGDIFNMFVFFEVMLMASYVLLVIGGTQVQLKATIKYLLINVVGSGFFVVAIALLYSMIGTLNMADISQKITDLNGANTGMISIVAVLFLFVFGLKAGLFPLYFWLPGSYFAPPIPVLALFGGLLTKVGVYAIIRTYTLFFSSLTDFVVPLLGILAIVTIILGVIGAISYYDMKTIVIYNIMIAIGVILFSVSIMTRESMTGAVFYLIHDMIIKAALFLIVGIVMAITGYSSVKKFSGLMSVKPSLGWIFFIATLGLAGIPPLSGFIGKLLIVEGAFSAGQMVGGIIILLSSLFVLMSLIKVFTKGFWGEKKGVFNLQIPYKKMLVPVVILLAISIGYGVFSNAIYPFIEQAVDPLVDPSVYIHAVIKE | failed
MPHPATMFFLFTLAVIFLSWIFDIYGLRVQLPQTGAEIRVQSLLSPEGIRWMLRNAITNFTGFAPLGMVLIAMFGIGVAQHSGFIDACVRQGVKNRKNTKRIILWVIILGLLSNIVGDAGYIILLPIAATLFYSVGLNPVAGIITAYVSVSCGYSANVVLSTMDPLIARTTQEAAIDSGVYQGNTGPLCNYYFMSVSTFVIGAIIYRITCKRLIPSLGQYEGKQIFEGYKQLSRKERRAMTMAIVMGMLYAAIILWATFSSWGILRGVNGGLIRSPFIMGILFLLSLGAAIMGMVYGFSSGRYRSDNDVIEGLAQPMKLLGGYLVIAFFAAQMFACLEYSHLDKCVAIIGANLLSSVQADPLWTLILFILFTATINLIMVSATAKWAFMAFIFVPVFARMGIEPDMTQCAFRIGDSATNAITPFMFYMPLVLTYMQQYDKQATYGSLLKYTWRYSVYILIGWTMLLFIWYLTGLPLGL | failed
MRVAVVGATGAVGREILKVLEARNFPLSELRLYASPRSAGVRLAFRGEEIPVEPLPEGPLPVDLVLASAGGGISRAKALVWAEGGALVVDNSSAWRYEPWVPLVVPEVNREKIFQHRGIIANPNCTTAILAMALWPLHRAFQAKRVIVATYQAASGAGAKAMEELLTETHRFLHGEAPKAEAFAHPLPFNVIPHIDAFQENGYTREEMKVVWETHKIFGDDTIRISATAVRVPTLRAHAEAVSVEFARPVTPEAAREVLKEAPGVEVVDEPEAKRYPMPLTASGKWDVEVGRIRKSLAFENGLDFFVVGDQLLKGAALNAVQIAEEWLKGA | not failed
KVILYARVSSSTQKDELVNQVKYLEEQVKEYDLVITDIGSGLNMKRKGFLKLLRMILNNEVSRVVVAYPDRLVRVGFEILEEVCKAHNCEIVVLNQEDKEEELVEDLMSALVSFSGKLYGMRSHEYEKVKKCAEELKNW | not failed
HITLNYLSKTLGMHQTINVILPEDKSYFDTNENAKPLKTMLLLHGLSSDTSSYMRYTSIERYANTHQLAVVMPNADHSFYSNMAYGHSYYDYILEVYDYVHQILPLSKKREDNFIAGHSMGGYGAIKFALTQSYRFSKAAMLSAPYDVSMIGQYQWYDFTPEAIVGNTQHVAGTSFDPYYLVEQAIDNGQALPQLYITCGTEDELYQGNIDFVNYLDEKGIPYQFKKAPGNHDYAFWDKAIEDVIDRF | failed
MTINPRDYDLDELRKMARQRGNGMGDEDVPDPTDLDMGLDDADEEVLAGSSFRSGLYRELLPFLSGDAQEKPYLEALPETYAAEFVVFEWLEFLLMHSGYKGADEALDYYRSIDWLTEDVQDDLSDYLLGIDESATNDDNELSVDDHMLSLVYIAKLTAMT | failed
MSTMTATSGRAKRPQKPITLVGVDVYVITEDGIPKFDEYGPFKIEFISNRGTKVWPGYVSPDLMLVNWYRCRFTATRPVTDKDVDAFVGELGKKHLWSAVQKLWNYGDEAGFSKAY | failed
MPRKKKTVEDPALTRALKVMEAGALPDADLAAEFATLAESYGKLLRKFNKTLVISDAYEAQHQAMAKKLEEATWKYRQLKDVALPICMYCKKIRSDDDYWQRLETFFCNHADIMFSHGICPDCIKTAYEKMGMNRRAMPLPDAAVTGQPAASPERQPVEDDALREMRALVRRSAFDGSPVAPEVEQFVEKYGKLLRRFSKIVSISDSYQSQLRELNARLELMARTDLLTGLANHWEMVMRLAAEQSRSERNGKVFSIVLADIDHFKKVNDTHGHQAGDRVIRGIADTLRTNIRREDICSRWGGEEFLIILPEADLPRAGAVAAKLLAKVRNTVVPWDGRDIRVTVSIGYGTSEPGMSVDELIRRVDDALYSAKAAGRDRFAAAGSRADV | failed
MYRDRVRLPSLLDKVMSAAEAADLIQDGMTVGMSGFTRAGEAKAVPQALAMRAKERPLRISLMTGASLGNDLDKQLTEAGVLARRMPFQVDSTLRKAINAGEVMFIDQHLSETVEQLRNHQLKLPDIAVIEAAAITEQGHIVPTTSVGNSASFAIFAKQVIVEINLAHSTNLEGLHDIYIPTYRPTRTPIPLTRVDDRIGSTAIPIPPEKIVAIVINDQPDSPSTVLPPDGETQAIANHLIDFFKREVDAGRMSNSLGPLQAGIGSIANAVMCGLIESPFENLTMYSEVLQDSTFDLIDAGKLRFASGSSITLSPRRNADVFGNLERYKDKLVLRPQEISNHPEVVRRLGIIGINTALEFDIYGNVNSTHVGGTKMMNGIGGSGDFARNAHLAIFVTKSIAKGGNISSVVPMVSHVDHTEHDVDILVTEQGLADLRGLAPRERARVIIENCVHPSYQAPLLDYFEAACAKGGHTPHLLREALAWHLNLEERGHMLAG | not failed
MHEQLSPRDQELEARLVELETRLSFQEQALTELSEALADARLTGARNAELIRHLLEDLGKVRSTLFADAADEPPPPHY | not failed
MVNEVQGIGIPTSHTSVQTTPTKEISRTNTINTVDESKTTIDPDQYKPKLELLSERLNEEMKRIGTDINFSYNDTIKGLVVSVKDANGDKVIREIPSKEAVELMQRMRDVIGIIFDKRG | failed
MTFAWGRGSHGGAGMRIVQITDTHFSPTKAHFNGNWAPLAAWIEQSGADLVIHTGDLSVDGADRDDDIAFCMDLMREISAPMLLVPGNHDVGHLPGSLQPVNAGRLERWRRLVGPDYWMEDAGSWRLIGLDSLLMGFDDAEEEAQFDWLRTVLESRGGRRVALFAHKPLFVDAPGEGDTGYWSVRPAQRQRLYDLIATHDVALFASGHLHRAWQGKYENTSLVWGPSAAFVVGDMERDMPGERLLGAVIHQFSDTVTSEIVAIPGMTAYVLDDVVAEVYPHEAHKARKRVASLEHHHHHH | failed
AEICLITGTPGSGKTLKMVSMMANDEMFKPDENGIRRKVFTNIKGLKIPHTYIETDAKKLPKSTDEQLSAHDMYEWIKKPENIGSIVIVDEAQDVWPARSAGSKIPENVQWLNTHRHQGIDIFVLTQGPKLLDQNLRTLVRKHYHIASNKMGMRTLLEWKICADDPVKMASSAFSSIYTLDKKVYDLYESAEVHTVNKVKRSK | not failed
